We go through two molecules from publication PMC3433420, “Comprehensive Binary Interaction Mapping of SH2 Domains via Fluorescence Polarization Reveals Novel Functional Diversification of ErbB Receptors” (PLoS ONE, 2012).

Non-standard residues stand in square brackets, D forms with d. No end group written: not given here. pY = N[C@@H](Cc1ccc(OP(=O)(O)O)cc1)C(=O)O; rhodamine = not defined here

The target of one test is T1, GRB2 SH2 domain (human, UniProt P62993 60-152).
T1 construct: GRB2, human; source: bacterial expression, purified
Nature of the test: fluorescence polarisation; saturation binding in solution: rhodamine peptide fixed at 10 nM, protein titrated 0.002-10 uM, 20 min at room temperature; assay buffer 20 mM HEPES, 100 mM KCl, 0.1% Tween-20, 5 mM DTT, pH 7.8; apparent KD. Particulars: both partners purified. For orientation: Fluorescence polarisation rises when a labelled molecule tumbles more slowly, as on binding a larger partner.

A further test addresses T2, SRC SH2 domain (human, UniProt P12931-1 151-248).
T2 construct: SRC, human; also called c-Src; source: bacterial expression, purified
Nature of the test: fluorescence polarisation; competition: rhodamine peptide 10 nM, protein at four times its KD, unlabeled competitor peptide in 11 serial 1:3 dilutions; Ki from IC50, one-site model. Particulars: both partners purified.

As a reminder, the Ki is the dissociation constant of the complex between target and ligand, obtained from inhibition or displacement.

T1 sequence (P62993 60-152): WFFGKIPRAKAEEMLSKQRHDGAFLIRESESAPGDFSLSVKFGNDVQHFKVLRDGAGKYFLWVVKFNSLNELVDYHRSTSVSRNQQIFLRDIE

B1: ErbB4pY1208 phosphopeptide, rhodamine-labelled (peptide)
peptide: rhodamine-NEPL[pY]LNTFANTD
modifications: reading uncertain
notes: human ErbB4 around Tyr1208; the labelled form stood in the FP saturation assay behind Ki (exp FP); source: synthetic peptide
In the case of B1, the Kd with GRB2 SH2 domain was 1460 nM.

B2: ErbB3pY1222 phosphopeptide, unlabeled competitor (peptide)
peptide: EELG[pY]EYMDVGSD
notes: human ErbB3 around Tyr1222; source: synthetic peptide
As for B2, the Ki with SRC SH2 domain was determined as 2360 nM.
